{"source": "paper doi:10.1101/2020.03.13.990150", "biological_target": "Saccharomyces cerevisiae (Sc) Tim9 (Saccharomyces cerevisiae)", "test": "SEC", "data": [{"substance": "Saccharomyces cerevisiae (Sc) Tim9 (natural protein)", "values": [{"measurement": "stoichiometry N", "result": 2}]}]}
